Test results taken from the RNAGym collection of RNA variant scans (doi:10.1073/pnas.2313332121).
Variants at the floor of the assay were thinned out.

B1: TPR 5TU (parent)
chain: GGAUCUUCUCGAUCUAACAAAAAAGACAAAUCUGCCACAAAGCUUGAGAGCAUCUUCGGAUGCAGAGGCGGCAGCCUUCGGUGGCGCGAUAGCGCCAACGUUCUCAACUAUGACACGCAAAACGCGUGCUCCGUUGAAUGGAGUUUAUCAUG

Variants of: B1
Experiment: polymerase ribozyme fitness, log enrichment relative to wild type (log ratio); higher = more active; in vitro selection for triplet polymerase activity
Summary of the method: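 Only genotypes with ≥10 input reads and ≥1 read per output were kept after Illumina sequencing of input and output libraries. These libraries were PCR-built, transcribed mutants of each subunit of a heterodimeric triplet polymerase ribozyme, each put through one triplicate in vitro selection round with frozen incubation at −7 °C, gel excision of extended constructs, streptavidin-bead capture and RT-PCR. Fitness is a logarithmic ratio of genotype enrichment to wild-type enrichment, from inverse-variance-weighted replicate averages, with the logarithm in base 2.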

Point of comparison: A41U C95U C99A U146G, “polymerase ribozyme fitness (log ratio)” value -2.29. Against it:
- G42U A73C C95U A98C U144A — lower, ≤ -4.2
- A41U U56A — higher, -0.813
- A41U C99A A106U C118A A119G U134C — lower, ≤ -4.2
- G42U G48A U55A C118A A137G — lower, ≤ -4.2
- G42C G46C G70C C95G U101G C129A C132G — lower, ≤ -4.2
- C43G A47C U104G — lower, ≤ -4.2
- C43U C96A C116G A137U — lower, ≤ -4.2
- U44A — lower, -3.72
- G42A C79U U139A U145A C149G — lower, ≤ -4.2
- C43G G83A — lower, ≤ -4.2
- C43A G92C — lower, ≤ -4.2
- G42A — lower, -3.47
- G42U — lower, -3.47
- G42C — lower, -3.77
- G42U C85G G86C U90G — lower, ≤ -4.2
- C43G A52U A142C U144A — lower, ≤ -4.2
- G42C U56A C79A — lower, ≤ -4.2
- G42A C72U A91U — lower, ≤ -4.2
- G42C G48U U61A A110U — lower, ≤ -4.2
- C43G A64C A73C C87A C105G — lower, ≤ -4.2
- C43U C69U A91C A137C — lower, ≤ -4.2
- A41U G58A G81C — higher, -0.606
- G42C U61A C75G C93A — lower, ≤ -4.2
- A41U G141A A150G — lower, -4.16
- U44A C54U — lower, -3.59
- G42C C43U A60G C87A C108G A121G A142C — lower, ≤ -4.2
- G42A C54G C95U A107U C118G — lower, ≤ -4.2
- G42A U82G A91G G133A U134C G140C — lower, ≤ -4.2
- C43A C93G G133A — lower, ≤ -4.2
- G42C G86U A150U — lower, ≤ -4.2
- A41U U102C U146G — lower, -3.93
- G42C A49C A52C C75U C85U A91U — lower, ≤ -4.2
- C43A U44G U45A — lower, ≤ -4.2
- A41U C96U A122C — higher, -1.02
- U44A C57G G70C C96U A107U C149G A150C — lower, ≤ -4.2
- A41U G58A A60U C93G — lower, ≤ -4.2
- G42C C87U A113C C118G G141C — lower, ≤ -4.2
- C43U C54A C79U A91U A142U G143A — lower, ≤ -4.2
- U44A A60G G67A G92U C105A — lower, ≤ -4.2
- G42A G48A U53A C76A C93G — lower, ≤ -4.2
- G42A G83C C96G C105U A110G U139C — lower, ≤ -4.2
- C43A U56A G67A G88A G112C C114U — lower, ≤ -4.2
- C43U C99G — lower, ≤ -4.2
- G42U C57G G58A C85G — lower, ≤ -4.2
- C43U A52C G83U A91U — lower, ≤ -4.2
- G42C C72U G92C C96U — lower, ≤ -4.2
- G42A G50C — lower, ≤ -4.2
- C43U G80A A115G — lower, ≤ -4.2
- G42C U61A A64G A107G U130C — lower, ≤ -4.2
- G42A G80C G86C — lower, ≤ -4.2
- G42U G92C — lower, -3.85
- A41U G42A U44C A64U C76G C96U A107U — lower, ≤ -4.2
- A41U U53G U56C U146C U151G — lower, ≤ -4.2
- G42C A52G U55A U56A G68A — lower, ≤ -4.2
- G42A U55A C85U A97U G140C — lower, ≤ -4.2
- C43A U55A G92A — lower, ≤ -4.2
- C43U A147U — lower, -4.06
- C43A A52G G83A G124U G143A — lower, ≤ -4.2
- A41U U77A — lower, ≤ -4.2
- C43U C87U — lower, -3.73
- C43G C125A U146A U148A — lower, ≤ -4.2
- C43A C54U — lower, ≤ -4.2
- A41U U55G — higher, -0.663
- C43U A119G — lower, ≤ -4.2
- A41U G70A — lower, -3.15
- A41U G86U — higher, -1.92
- U44A A47C U56A G84C C87G — lower, ≤ -4.2
- G42C G80C G86U C118U A121G A150G — lower, ≤ -4.2
- A41U C99A A107U G117A A122U G128A — lower, ≤ -4.2
- A41U U55A A66G C93U A110G G140A — lower, ≤ -4.2
- C43G U45G U134C — lower, ≤ -4.2
- U44A C76U C87A C105A A107G U127A U145C G152U — lower, ≤ -4.2
- G42U G62U C63A C69U C99A C103G C108A — lower, ≤ -4.2
- A41U G48U C57G C85U A120U — lower, -3.4
- G42A G71U G126A A138C — lower, ≤ -4.2
- G42U U55G G59A G88U C96G A98G — lower, ≤ -4.2
- C43U C51U U53G A73G C96G G126U — lower, ≤ -4.2
- G42C U127G A150G — lower, ≤ -4.2
- G42A G81U A91C G92U C95G A107C C108A C114G G141A — lower, ≤ -4.2
- G42A G59A G80A — lower, ≤ -4.2
- A41U C131G — lower, ≤ -4.2
- C43U A49G G84C G140U U146G — lower, ≤ -4.2
- G42A G62A G65U G136U — lower, ≤ -4.2
